US20260001934A1
Blank lines part the entries; values can stand above or below the substance they belong to.

Columns and labels:
α208.GS.BBz [1] = test: flow cytometry, mAb 210 plus secondary IgG-APC on lentivirally transduced primary human T cells, day 5; the same gate on NTD cells reads 0.20; the filing says this CAAR is not surface-expressed, so the low value shows absent target and not lack of affinity
α39P AChR.CD8H.BBz CAAR [2] = test: flow cytometry, mAb 210 staining of lentivirally transduced primary human CD3+ T cells, day 5; the same gate on NTD cells reads 0.32
Chain of α39P AChR.CD8H.BBz CAAR (chain, as listed by the source): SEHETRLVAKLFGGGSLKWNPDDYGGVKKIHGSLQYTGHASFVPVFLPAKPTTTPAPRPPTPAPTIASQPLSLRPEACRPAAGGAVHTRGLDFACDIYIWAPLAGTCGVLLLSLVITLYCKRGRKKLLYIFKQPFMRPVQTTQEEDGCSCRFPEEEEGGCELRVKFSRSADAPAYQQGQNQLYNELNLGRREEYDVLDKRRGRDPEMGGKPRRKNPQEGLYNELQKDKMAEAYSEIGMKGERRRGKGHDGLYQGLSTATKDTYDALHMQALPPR

α65P AChR.CD8H.BBz CAAR [3] = test: as above
α211.GS.BBz CAAR [4] = test: flow cytometry, mAb 210 plus secondary IgG-APC on lentivirally transduced primary human T cells, day 5; the same gate on NTD cells reads 0.20
α210.GS.BBz CAAR [5] = test: as above
α39P AChR.CD8H.BBz CAAR [6] = test: flow cytometry, mAb 210 staining of lentivirally transduced Jurkat cells, day 3; the same gate on NTD cells reads 0.43
α65P AChR.CD8H.BBz CAAR [7] = test: as above
α208.GS.BBz [8] = test: flow cytometry, mAb 210 plus anti-rat IgG-APC on transiently transfected 293T cells, day 2; non-transfected 293T reads 0%; the filing says this CAAR is not expressed on the cell surface, so the low value shows absent target and not lack of affinity
α211.GS.BBz CAAR [9] = test: flow cytometry, mAb 210 plus anti-rat IgG-APC on transiently transfected 293T cells, day 2; non-transfected 293T reads 0%
α210.GS.BBz CAAR [10] = test: as above
α208.GS.BBz [11] = molecular target: α208.GS.BBz
α211.GS.BBz CAAR [12] = molecular target: α211.GS.BBz CAAR
α210.GS.BBz CAAR [13] = molecular target: α210.GS.BBz CAAR
α39P AChR.CD8H.BBz CAAR [14] = molecular target: α39P AChR.CD8H.BBz CAAR
α65P AChR.CD8H.BBz CAAR [15] = molecular target: α65P AChR.CD8H.BBz CAAR
α211.GS.BBz CAAR [16] = molecular target: α211.GS.BBz CAAR; remark: listed apart in the source
α210.GS.BBz CAAR [17] = molecular target: α210.GS.BBz CAAR; remark: listed apart in the source
α65P AChR.CD8H.BBz CAAR [18] = molecular target: α65P AChR.CD8H.BBz CAAR; remark: listed apart in the source
α39P AChR.CD8H.BBz CAAR [19] = molecular target: α39P AChR.CD8H.BBz CAAR; remark: listed apart in the source

- % of cells in the mAb 210-positive gate (% (unit not given; gate frequency)) (α208.GS.BBz [1]): 1.14
- % of cells in the mAb 210-positive gate (% (unit not given; gate frequency)) (α39P AChR.CD8H.BBz CAAR [2]): 53.4
- % of cells in the mAb 210-positive gate (% (unit not given; gate frequency)) (α65P AChR.CD8H.BBz CAAR [3]): 13.1
- % of cells in the mAb 210-positive gate (% (unit not given; gate frequency)) (α211.GS.BBz CAAR [4]): 63.6
- % of cells in the mAb 210-positive gate (% (unit not given; gate frequency)) (α210.GS.BBz CAAR [5]): 41.3
- % of cells in the mAb 210-positive gate (% (unit not given; gate frequency)) (α39P AChR.CD8H.BBz CAAR [6]): 68.5
- % of cells in the mAb 210-positive gate (% (unit not given; gate frequency)) (α65P AChR.CD8H.BBz CAAR [7]): 68.8
- % AChR CAAR surface-positive 293T cells (α208.GS.BBz [8]): 3.91%
- % AChR CAAR surface-positive 293T cells (α211.GS.BBz CAAR [9]): 17.1%
- % AChR CAAR surface-positive 293T cells (α210.GS.BBz CAAR [10]): 26.3%
Substance: anti-AChR alpha subunit monoclonal antibody 210

- % GFP+ Jurkat reporter cells (CD3+ gate) after 12 h co-culture with TIB-175; the construct is a negative control that is not on the cell surface (α208.GS.BBz [11]): 2.88%
- % GFP+ AChR CAAR Jurkat reporter cells (CD3+ gate) after 12 h co-culture with TIB-175 (α211.GS.BBz CAAR [12]): 55.7%
- % GFP+ AChR CAAR Jurkat reporter cells (CD3+ gate) after 12 h co-culture with TIB-175 (α210.GS.BBz CAAR [13]): 53%
- % GFP+ CAAR Jurkat NFAT-GFP cells after 12 h co-culture with TIB-175 (NTD Jurkat in the same figure: 4.1) (% (unit not given; gate frequency)) (α39P AChR.CD8H.BBz CAAR [14]): 53.7
- % GFP+ CAAR Jurkat NFAT-GFP cells after 12 h co-culture with TIB-175 (NTD Jurkat in the same figure: 0.81) (% (unit not given; gate frequency)) (α65P AChR.CD8H.BBz CAAR [15]): 69
Substance: mAb 35 surface anti-AChR B cell receptor on TIB-175 hybridoma cells (antibody)

- % GFP+ AChR CAAR Jurkat NFAT-GFP cells (CD3+ gate) after 12 h co-culture (α211.GS.BBz CAAR [16]): 91.4%
- % GFP+ AChR CAAR Jurkat NFAT-GFP cells (CD3+ gate) after 12 h co-culture (α210.GS.BBz CAAR [17]): 89.5%
- % GFP+ among CD3+-gated α65P CAAR Jurkat NFAT-GFP cells after 12 h co-culture, lower histogram (% (unit not given; gate frequency)) (α65P AChR.CD8H.BBz CAAR [18]): 41.4
- % of all co-cultured cells in the CD3+ GFP+ quadrant, upper dot plot, upper right (% (unit not given; quadrant frequency)) (α65P AChR.CD8H.BBz CAAR [18]): 5.96
- % GFP+ among CD3+-gated α39P CAAR Jurkat NFAT-GFP cells after 12 h co-culture, lower histogram (Nalm6 control: 4.1) (% (unit not given; gate frequency)) (α39P AChR.CD8H.BBz CAAR [19]): 6.23
- % of all co-cultured cells in the CD3+ GFP+ quadrant, upper dot plot, upper right (Nalm6 control: 1.52) (% (unit not given; quadrant frequency)) (α39P AChR.CD8H.BBz CAAR [19]): 5.44
Substance: mAb 192 anti-AChR B cell receptor expressed on Nalm6 cells (antibody)

- % GFP+ AChR CAAR Jurkat NFAT-GFP cells (CD3+ gate) after 12 h co-culture (α211.GS.BBz CAAR [16]): 94.6%
- % GFP+ AChR CAAR Jurkat NFAT-GFP cells (CD3+ gate) after 12 h co-culture (α210.GS.BBz CAAR [17]): 91.7%
- % GFP+ among CD3+-gated α65P CAAR Jurkat NFAT-GFP cells after 12 h co-culture, lower histogram (% (unit not given; gate frequency)) (α65P AChR.CD8H.BBz CAAR [18]): 70.5
- % of all co-cultured cells in the CD3+ GFP+ quadrant, upper dot plot, upper right (% (unit not given; quadrant frequency)) (α65P AChR.CD8H.BBz CAAR [18]): 6.95
- % GFP+ among CD3+-gated α39P CAAR Jurkat NFAT-GFP cells after 12 h co-culture, lower histogram (Nalm6 control: 4.1) (% (unit not given; gate frequency)) (α39P AChR.CD8H.BBz CAAR [19]): 68.6
- % of all co-cultured cells in the CD3+ GFP+ quadrant, upper dot plot, upper right (Nalm6 control: 1.52) (% (unit not given; quadrant frequency)) (α39P AChR.CD8H.BBz CAAR [19]): 17.8
Substance: mAb 195 anti-AChR B cell receptor expressed on Nalm6 cells (antibody)
